The values that follow come from patent US20170192000A1 (Hoffmann-La Roche, published 2017).

In this assay the target is T1, Human li p10 (human).
T1 construct: also called Ii p10; li p10 peptide
T1 chain: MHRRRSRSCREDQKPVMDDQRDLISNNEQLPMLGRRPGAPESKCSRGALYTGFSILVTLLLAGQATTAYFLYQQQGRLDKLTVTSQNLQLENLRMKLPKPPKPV
In words: flow cytometry on fixed and permeabilised human PBMC treated with Cathepsin S inhibitor 1. Here is the method: FIG. 1: Detection of Ii p10 expression on B cells and T cells using a neoepitope antibody. PBMCs isolated from blood donation of a healthy donor (R213) were incubated for 20 h with increasing concentrations of Cathepsin S inhibitor 1 or vehicle. Ii p10 detection on B cells (CD20+) and T cells (CD3+) was determined by flow cytometry using a different neoepitope antibody 7B8 (black).
On the technique in general: In flow cytometry, cells or beads pass a laser one at a time.

B1: anti li p10 antibody 7B8 (antibody, V domains shown)
VH: QSLEESGGRLVTPGTPLTLTCTVSGIDLSTYAMTWVRQAPGKGLEWIGIIYNNGVVVYASWAKGRFTISKTSTTVDLKMTSPTTEDTATYFCCRGYYDGSVNVWGPGTLVTVSL
VL: QVLTQTASSVSAVVGGTVTISCQSSQSVYNDNVLSWFQQKPGQPPKLLIYLASTLASGVPSRFSGSGSGTQFTLTISDLECDDAAAYYCLGGYTGDMYAFGGGTEVVV
notes: Used unlabeled at 10 ug/mL and detected with PE-conjugated goat anti-rabbit IgG; also called anti-p10 antibody
As for B1, the binding result is “binds”.
